Tests used:
p38α(T185G) = biological target: T1, p38α(T185G) (UniProt P47811 1-360, T185G); test: ITC; ITC200 microcalorimeter (Microcal); T = 298 K; heats corrected for dilution; which partner was titrated is not stated; conditions: both partners purified
T1 construct: PCR product described as a full-length p38α harboring the desired mutation; His6 tag followed by a TEV cleavage site at the N-terminal end; also called T185G mutant; p38α(T185G) mutant kinase

[1] = biological target: T2, wild-type p38α mitogen-activated protein kinase (UniProt P47811 1-360); test: as above; conditions: both partners purified
T2 construct: His6 tag followed by a TEV cleavage site at the N-terminal end; also called wtp38α
T2 sequence (P47811 whole entry): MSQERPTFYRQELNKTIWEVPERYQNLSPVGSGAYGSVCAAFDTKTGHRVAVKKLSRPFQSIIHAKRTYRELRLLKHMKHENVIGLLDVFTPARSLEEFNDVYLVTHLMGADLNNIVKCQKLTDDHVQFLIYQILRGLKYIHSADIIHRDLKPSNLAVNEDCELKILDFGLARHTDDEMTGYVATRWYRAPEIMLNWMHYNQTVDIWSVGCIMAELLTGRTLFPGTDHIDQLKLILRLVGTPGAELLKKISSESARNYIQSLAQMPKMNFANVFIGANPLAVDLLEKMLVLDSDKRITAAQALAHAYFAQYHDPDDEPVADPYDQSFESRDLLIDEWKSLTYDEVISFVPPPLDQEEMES

T1 sequence (P47811 whole entry T185G): as the sequence (P47811 whole entry) above, with T185G counted along it

Kd (p38α(T185G)): 1100 nM
dH (p38α(T185G)): -9.6 kcal/mol
stoichiometry N (p38α(T185G)): 0.7
Kd [1]: 2900 nM
dH [1]: -13.6 kcal/mol
stoichiometry N [1]: 0.8
Binder: GGRVYPVSVPYSSAQSTSKTSVTLSLVMP (peptide, UniProt Q15750 384-412, looked up)

Source: publication PMC5809688 (Molecular and Cellular Biology, 2017)
